35 sequences from the Immune Epitope Database (IEDB) can be followed below.

A word on the Kd: it is the constant that tells how readily two partners part at equilibrium.

Bounds are passed on as bounds.

One experiment has as its target HLA-A*03:01. Briefly: IEDB peptide-MHC binding, purified MHC/competitive/radioactivity; filed as Kd, often an IC50 or EC50 that approximates it; ≥ and ≤ were set here for values at or beyond the usual limits of such assays. The settings on record: source organism: Lymphocytic choriomeningitis virus (strain Armstrong).
SCQGSDDIRK: the Kd is no less than 70 µM.

The same experiment, now with this note: source organism: Mammarenavirus guanaritoense.
In the case of FFTTSLFLH, the Kd is no less than 55.7 µM.

Staying with this experiment, now noted: source organism: Mammarenavirus juninense.
RNPYENLLYK: the Kd was found to be 2.47 µM.

Staying with this experiment, now noted: source organism: SARS coronavirus Tor2.
On to MQNCLLRLK, for which the Kd is 0.0983 µM.
As for SLTSLLKTHR, the Kd came to 1.45 µM.
For DQDALFAYTK, the Kd was 4.25 µM.
As to RQLFKPLTK, the Kd came to 0.0922 µM.
Regarding LAMDEFIQR, the Kd was no less than 78 µM.
As for VLTSEEVVLK, the Kd was found to be 7.47 µM.
As for VTCAAYYFMK, the Kd was determined as 0.0127 µM.
Still for that read-out and setting: then AFHTPAFDK, with 1.43 µM.

Still in this experiment, the particulars now being: source organism: Vaccinia virus WR.
For SLTILDDNLY, the Kd came to 0.491 µM.
Still for that read-out and setting: then KSRRLNLFSK, with 0.64 µM; and SSMTIREFPR, with 9.97 µM; and SSLVKNVNK, with 0.432 µM.
The same measure, in the same setting: then PLIDIIRKR, with no less than 45.7 µM; and FLKDDTLSK, with 0.347 µM; and ESIEDKFDY, with 7.53 µM.
As to TVNICIFYDR, the Kd was 0.414 µM.
As for KSMFWDGMDY, the Kd was found to be 0.00579 µM.
In the case of SVKYYGRSTK, the Kd was determined as 0.0976 µM.
Same read-out and setting: in the case of RVRRYQIAQY it was 0.0206 µM.
Still for that read-out and setting: in the case of LALTDVEKR it was no less than 78 µM; in that of VTRKCPQKK, 0.000762 µM.
Still for that read-out and setting: then AFLLRHYYNK, with 0.749 µM; and MMKLGISPSK, with 0.0115 µM; and NLTDTNFKK, with 1.22 µM.
Turning to IILAALFMYY, the Kd was 0.679 µM.
Same read-out and setting: in the case of IITSTKTIEY it was 0.0822 µM; in that of KVKTELVMDK, 1.33 µM.
On to FLEFSNRVY, for which the Kd amounted to 0.0435 µM.
Still for that read-out and setting: then VVVQIDPEY, with 0.141 µM; and SFIVPEFAK, with no less than 43.5 µM.
Still for that read-out and setting: in the case of ISDYSAEVER it was no less than 23.4 µM.
As for KVVDTFISY, the Kd turned out to be 0.0079 µM.

The target in another experiment is HLA-A*31:01. The experiment is described as above. The settings on record: source organism: Lymphocytic choriomeningitis virus (strain Armstrong).
Regarding SCQGSDDIRK, the Kd came out at 9.93 µM.

Staying with this experiment, now noted: source organism: Mammarenavirus guanaritoense.
Regarding FFTTSLFLH, the Kd was determined as 1.19 µM.

The same experiment, now with this note: source organism: Mammarenavirus juninense.
Take RNPYENLLYK: the Kd was 4.76 µM.

Still in this experiment, the particulars now being: source organism: SARS coronavirus Tor2.
Take MQNCLLRLK: the Kd worked out at 0.0131 µM.
As to SLTSLLKTHR, the Kd came to 0.105 µM.
Same read-out and setting: then DQDALFAYTK, with 3.72 µM; and RQLFKPLTK, with 2.38 µM.
Same read-out and setting: in the case of LAMDEFIQR it was 0.362 µM; in that of VLTSEEVVLK, no less than 70 µM.
For VTCAAYYFMK, the Kd was 0.199 µM.
Turning to AFHTPAFDK, the Kd was 5.64 µM.

Still in this experiment, the particulars now being: source organism: Vaccinia virus WR.
In the case of SLTILDDNLY, the Kd is no less than 47 µM.
For KSRRLNLFSK, the Kd was 0.647 µM.
The same measure, in the same setting: then SSMTIREFPR, with 0.000996 µM.
SSLVKNVNK: the Kd is 1.25 µM.
The same measure, in the same setting: in the case of PLIDIIRKR it was 6.25 µM.
On the same count and under the same terms, then FLKDDTLSK, with no less than 77.9 µM.
Consider ESIEDKFDY, for which the Kd is no less than 34.5 µM.
Consider TVNICIFYDR, for which the Kd is 0.0123 µM.
KSMFWDGMDY: the Kd came to 0.0772 µM.
Still for that read-out and setting: in the case of SVKYYGRSTK it was 1.34 µM.
In the case of RVRRYQIAQY, the Kd turned out to be 2.44 µM.
Still for that read-out and setting: in the case of LALTDVEKR it was 0.209 µM; in that of VTRKCPQKK, 0.0137 µM.
With AFLLRHYYNK, the Kd came out at 0.0238 µM.
Regarding MMKLGISPSK, the Kd turned out to be 0.382 µM.
On the same count and under the same terms, then NLTDTNFKK, with 9.07 µM; and IILAALFMYY, with no less than 70 µM.
Consider IITSTKTIEY, for which the Kd was found to be 6.63 µM.
On to KVKTELVMDK, for which the Kd was determined as 0.12 µM.
The same measure, in the same setting: then FLEFSNRVY, with 1.33 µM; and VVVQIDPEY, with no less than 77.9 µM.
SFIVPEFAK: the dissociation constant (Kd) was 0.0273 µM.
For the sequence ISDYSAEVER, the Kd was found to be 1.73 µM.
KVVDTFISY: the Kd was found to be 1.17 µM.

In a further experiment the target is HLA-A*33:01. The description is as above. To be noted: source organism: Lymphocytic choriomeningitis virus (strain Armstrong).
Regarding SCQGSDDIRK, the Kd is no less than 70 µM.

Still in this experiment, the particulars now being: source organism: Mammarenavirus guanaritoense.
As for FFTTSLFLH, the Kd was no less than 77.7 µM.

The experiment is the same for the next values; noted with them: source organism: Mammarenavirus juninense.
Regarding RNPYENLLYK, the Kd was no less than 35.9 µM.

The same experiment, now with this note: source organism: SARS coronavirus Tor2.
As for MQNCLLRLK, the Kd was 12.1 µM.
On the same count and under the same terms, then SLTSLLKTHR, with 0.804 µM; and DQDALFAYTK, with 9.57 µM.
RQLFKPLTK: the Kd is no less than 77.7 µM.
The same measure, in the same setting: in the case of LAMDEFIQR it was 1.45 µM; in that of VLTSEEVVLK, no less than 70 µM; in that of VTCAAYYFMK, 2.62 µM.
In the case of AFHTPAFDK, the equilibrium dissociation constant (Kd) is no less than 33.2 µM.

The experiment is the same for the next values; noted with them: source organism: Vaccinia virus WR.
Turning to SLTILDDNLY, the Kd was 15 µM.
Still for that read-out and setting: in the case of KSRRLNLFSK it was no less than 70 µM.
The same measure, in the same setting: in the case of SSMTIREFPR it was 0.0173 µM; in that of SSLVKNVNK, no less than 77.7 µM; in that of PLIDIIRKR, 1.02 µM.
Same read-out and setting: in the case of FLKDDTLSK it was no less than 30.7 µM; in that of ESIEDKFDY, no less than 77.7 µM; in that of TVNICIFYDR, 0.0728 µM.
Regarding KSMFWDGMDY, the Kd is no less than 66.2 µM.
On to SVKYYGRSTK, for which the Kd was 13.5 µM.
With RVRRYQIAQY, the Kd is no less than 70 µM.
Consider LALTDVEKR, for which the Kd is no less than 73.3 µM.
Same read-out and setting: in the case of VTRKCPQKK it was 12.3 µM.
Regarding AFLLRHYYNK, the Kd stood at 1.91 µM.
As for MMKLGISPSK, the Kd was 10.6 µM.
The same measure, in the same setting: in the case of NLTDTNFKK it was 4.43 µM; in that of IILAALFMYY, no less than 70 µM; in that of IITSTKTIEY, 14.1 µM.
The same measure, in the same setting: in the case of KVKTELVMDK it was no less than 70 µM; in that of FLEFSNRVY, 8.43 µM; in that of VVVQIDPEY, no less than 77.7 µM.
For the sequence SFIVPEFAK, the Kd was 8.35 µM.
On to ISDYSAEVER, for which the Kd was found to be 1.36 µM.
The same measure, in the same setting: then KVVDTFISY, with 12.3 µM.

The target of a further experiment is HLA-A*68:01. Described as above. To be noted: source organism: Lymphocytic choriomeningitis virus (strain Armstrong).
In the case of SCQGSDDIRK, the Kd was no less than 70.1 µM.
